One block for each binder: values may come before it. Primed or numbered codes have the meaning given here. * marks the point of attachment. PEG8(3) = PEG8 side chain conjugate on Lys; Isovaleryl = CC(C)CC(=O)*
Experiments:
Test in all cases: cell-based or functional assay
[1] = target: T1, human ferroportin (SLC40A1) fused in frame with GFP, stably expressed on HEK293 cells (human, UniProt Q9NP59 1-571)
T1 sequence (looked up): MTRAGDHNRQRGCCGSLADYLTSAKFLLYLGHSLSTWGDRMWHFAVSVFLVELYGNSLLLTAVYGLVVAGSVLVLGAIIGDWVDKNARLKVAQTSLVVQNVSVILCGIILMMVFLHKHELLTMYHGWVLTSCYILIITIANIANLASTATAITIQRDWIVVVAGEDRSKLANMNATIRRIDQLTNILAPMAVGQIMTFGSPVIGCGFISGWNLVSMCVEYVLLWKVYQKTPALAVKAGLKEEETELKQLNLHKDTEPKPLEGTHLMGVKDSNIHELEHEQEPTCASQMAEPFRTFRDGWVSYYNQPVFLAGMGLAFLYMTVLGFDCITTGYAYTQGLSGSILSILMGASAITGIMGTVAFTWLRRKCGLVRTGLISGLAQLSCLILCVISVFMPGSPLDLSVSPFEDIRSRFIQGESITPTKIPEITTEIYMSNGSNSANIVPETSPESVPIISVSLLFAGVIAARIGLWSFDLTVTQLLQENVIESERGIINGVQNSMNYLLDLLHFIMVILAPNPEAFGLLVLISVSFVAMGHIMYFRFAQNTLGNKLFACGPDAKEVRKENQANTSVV

[2] = target: T2, human ferroportin (SLC40A1) fused in frame with GFP, stably expressed in HEK293 cells (human, UniProt Q9NP59 1-571)
T2 sequence (looked up): T1 sequence (looked up)

[3] = target: T2, human ferroportin (SLC40A1) fused in …; remark: listed apart in the source
[4] = target: T2, human ferroportin (SLC40A1) fused in …; remark: listed apart in the source
[5] = target: T2, human ferroportin (SLC40A1) fused in …; remark: listed apart in the source

B1: Compound 52 (DAHFPCIIF-NH2) (peptide)
peptide: H-DAHFPCIIF-NH2
- EC50 (nM) (n > 3) [1]: 388 nM

B2: Compound 150 (peptide)
peptide: DTHFPCIKFKPRSKGWVCK
modifications: not fully specified; N-terminal isovaleric acid; K10(PEG8); C-terminal NH2
- In Vitro Activity EC50 [2]: 0.007 µM

B5: Compound 181 (peptide)
peptide: Isovaleryl-DTHFPCIKFEPRSKGWVCK-NH2
modifications: not fully specified (bridges); cysteine pairing not given here
- In Vitro Activity EC50 [2]: 0.015 µM

B7: Compound 184 (peptide)
peptide: Isovaleryl-DTHFPCIKFEPRSKGCK-NH2
modifications: not fully specified (bridges); cysteine pairing not given here
- In Vitro Activity EC50 [2]: 0.016 µM

B10: Compound 115 (peptide)
peptide: Isovaleryl-DTHFPCIIFGPRSKGCK-NH2
modifications: not fully specified (bridges); cysteine pairing not given here
- In Vitro Activity EC50 [2]: 0.021 µM

B11: Compound 9 (peptide)
peptide: Isovaleryl-DTHFPCIKFGPRSKGWVCK-NH2
modifications: not fully specified (bridges); cysteine pairing not given here
- In Vitro Activity EC50 [2]: 0.032 µM

B12: Compound 10 (peptide)
peptide: Isovaleryl-DTHFPCIQFGPRSKGWVCK-NH2
modifications: not fully specified (bridges); cysteine pairing not given here
- In Vitro Activity EC50 [2]: 0.035 µM

B13: Compound 153 (peptide)
peptide: Isovaleryl-DTHFPCIKFGPRSKGWVCK(PEG8(3))-NH2
modifications: not fully specified (bridges); cysteine pairing not given here
- In Vitro Activity EC50 [2]: 0.018 µM

B15: Compound 51 (DTHFPCIAF-NH2) (peptide)
peptide: H-DTHFPCIAF-NH2
- EC50 (nM) (n > 3) [1]: 382 nM

B17: Compound 105 (peptide)
peptide: Isovaleryl-DTHFPCIIFEPRSKGWVCK-NH2
modifications: not fully specified (bridges); cysteine pairing not given here
- In Vitro Activity EC50 [2]: 0.01 µM

B19: Compound 176 (peptide)
peptide: Isovaleryl-DTHFPICIFGPRSK(PEG8(3))GWVC-NH2
modifications: not fully specified (bridges); cysteine pairing not given here
- In Vitro Activity EC50 [2]: 0.006 µM

Second part, the binder after the results:

- Potency: % (activity) at 1 µM [3]: 55%
- EC50 (nM) (n = 3) [4]: > 300 nM
B3: Compound 309 (peptide)
peptide: H-DTHFPCILK-NH2

- EC50 (nM) (n > 3) [1]: > 1000 nM
B4: Compound 280 (DTHFACIIF-NH2) (peptide)
peptide: H-DTHFACIIF-NH2

- EC50 (nM) (n > 3) [1]: > 1000 nM
B6: Compound 278 (DTHFPCIIA-NH2) (peptide)
peptide: H-DTHFPCIIA-NH2

- EC50 (nM) (n > 3) [1]: > 1000 nM
B8: Compound 279 (DTHFPCAIF-NH2) (peptide)
peptide: H-DTHFPCAIF-NH2

- Potency: % (activity) at 1 µM [3]: 0%
- % Activity At 1 uM [4]: 0%
- EC50 (nM) (n = 3) [4]: > 1000 nM
B9: Compound 310 (peptide)
peptide: H-DTHFPCIEK-NH2

- Log dilutions EC50 (nM) (n > 3) [5]: 18 nM
B14: Compound 348 (peptide)
peptide: H-DTHFPCIKF-NH2
modifications: also: homodimer with IDA-(β-Ala) linking moiety, attachment site not given here

- EC50 (nM) (n > 3) [1]: 739 nM
B16: Compound 283 (DTAFPCIIF-NH2) (peptide)
peptide: H-DTAFPCIIF-NH2

- EC50 (nM) (n > 3) [1]: > 1000 nM
B18: Compound 284 (ATHFPCIIF-NH2) (peptide)
peptide: H-ATHFPCIIF-NH2

Source: US20250340608A1 (PROTAGONIST THERAPEUTICS, published 2025)
